From the DeepSol protein solubility set come the findings set out here.

A short description of this series: soluble on expression in E. coli; label from the status in PepcDB or PDB records.
“MARIRARGSIPDINAYTGSNVTLKIHKDPLGPYRRITWLHTKNQKILEYNYNSTKTIFESEFKGRVYLEENNGALHISNVRKEDKGTYYMRVLRETENELKITLEVFDPV”: the “soluble on expression in E. coli” value is listed as “soluble”. To “MSYYHHHHHHLESTSLYKKALAYTLPQLPYAYDALEPHIDARTMEIHHTKHHQTYVDNANKALEGTEFADLPVEQLIQQLDRVPADKKGALRNNAGGHANHSMFWQIMGQGQGQNGANQPSGELLDAINSAFGSFDAFKQKFEDAAKTRFGSGWAWLVVKDGKLDVVSTANQDNPLMGEAIAGVSGTPILGVDVWEHAYYLNYQNRRPDYLAAFWNVVNWDEVSKRYAAAK” belongs “soluble”. To “TDPDADRLGVEIRQPDGSYLNLSGNQIGAIIAKYILEAHKTAGTLPANAALCKSIVSTELVTKIAESYGATMFNVLTGFKFIGEKIHEFETQHNYTYMFGFEESFGYLIKPFVRDKDAIQAVLIVAEIAAYYRSRGMTLADGIEEIYKQYGYFSE” belongs “not soluble”; to “GPGSMEGSGSYRLKRGRDELSTPPASGNFPASDQRGTQNLLRCPWCPNGHLMRPAAKSPTNNSKEEGTHLCTNRSSCPCGAVIDQDRTMSFSCIDGSDLIRNFYNALDDHLETCQIVSQTPSQRDWAPWSIVAERSILFADPSNRKQRHSVDCSPPSLSPDPKGPVFYFLHCDNCGEKEFVC”, “not soluble”; to “MGSDKIHHHHHHMDNLPDKLQNIVEEVDHQIAPKLEEIEDQIVYNQAKVLKAFQDNNVAEADLNGATGYGDDDIGRDKLDKVYAQVFDTEDALVRPQFVSGTHTLFTALSGNLKYGDTLTYLTGMPYDTLQKVIGLTDDKRGTLAEKGVKFSYVPLSDENLIDYDVAEKILKRDQPKMVAIQRSRGYSTRKTFTVEQIKEMISFVKKVSPNSIIFIDNCYGEFAEKYEPTEYGADLMAGSLIKNAGGGLAKTGGYIVGKKDLVENAKLQLTAPGCTDEGATIGHLHDLYEGFFLAPNVTGMAEKGMIFAAALFEKMGLNVTPAWDEKRSDIIETIIFNDPEKMVKFVQEVQKNSPIDSFVTPEAVHMEGYEDKIIMAAGNFVSGSTIEFSADGPIRPPYAVYMQGGLTYAHDKVAIINSVRDTFFNKK”, “not soluble”. The same measure for “MDKLKIIMEKGTERLKRGFAKMVKGGVIMDVTNAEQARIAEEAGAVAVMALHKVPADIRKAGGVARMAPVEKIQEIMDAVTIPVMAKCRIGHEAEARILEALGVDMIDESEVLTPADPFFHIYKKKFTAPFVCGARNLGEAVRRIWEGAAMIRTKGEAGTGNIIEAVRHVRLVNENIRLIQRMTDEEIYGVAEKFAEPYLRLAFSVKEISGLPKRVLENEPIYEGFTYREIVEDIYKILLEIKKLGRLPVVNFAAGGVATPADAALMMAMGMDGVFVGSGIFKSSNPPKMARAIVEAVNHWDEPDVLAEISREIGEPMRGQAIEELQVRMEERGILEHHHHHH”: “not soluble”; for “MARAIWKGAISFGLVHIPVALNTAVRTERVDFDWLDKRSMEPVGYKRVNKVTGKEIDKDNIVKGVEFEKGRYVVISEEEIRKARPETTQTIDIFSFVEAGDIPLQHFDTPYYLTPDRRGGKVYALLRETLEKTGKVALATVVLHTRQHLALLRPLDHALVMITLRWPEEVRGLETLELDASVT”: “not soluble”. On to “MSLGRHSDNSLQESANHTVLLTSPTNTIPKDSRQRSQQFMQNLQDEICTALEQLDGKASFHQDHWERAEGGEGRTRVIREGRVFEQGGVNFSAVWGNSLPASILAQRPEAAGHEFFATGTSMVLHPRNPYVPTVHLNYRYFEAGPIWWFGGGADLTPYYAFKEDAVHFHQTLKNACDVHNPEYYPTFKRWCDEYFYLRHREEQRGIGGIFFDYQDASGKLYVESQTDSSVAIYSQKVGNVARNWEDIFAFVQSCGQAFLPAYLPIVERRQGIEYGDRQRNFQLYRRGRYVEFNLVYDRGTVFGLQTKGRTESILMSLPPLARWEYCYEPEAGSPEAELTEVFLQPRDWVEGHHHHHH”, for which the “soluble on expression in E. coli” value is “not soluble”. The same measure for “MSLNKVITKKQTIPAFFKGNAPYIFAHRGGMALRPEQTQLAFDYAKQLGVDGFETDVRLTKDQQLIVFHDATVDRTTNGSGKVSAHTLAELKKLDAAYHFKDINGLTPYRGHAHTTILTFDELLKQYPDMYINVDLKDAPESYEGSIAPQIMFDTIAENQAFDRVLVTSFYKEQIVRFNKIAQGSVAIGASQQEVTEAFLKYHLLGGRYYQPLAQTFQMPTHFKGIDLTSSRFIKWLNDMNIIPGYYGVNSIDLMNDLYQKGAHTIVTDRPDLAQQFKQTIPNKEGHHHHHH”: “soluble”; for “GESSKSGYQTTGENNSSDYQGIIEDGEYKTSKSRGVGISQNSDNLLNLKSFEAGLTTISKDHFSTKSYIFQEGQYLNKATIQDWLGRKSSSNPEGLNPSDNGKKEANKRNPIYVQQIEEQDYMKQNNGKLELAGMTIGIGMNQKDYYQKEQYGATYSTTISKEKRIEEGKIAAKKVLARVRQKVGNNVPIVIAMFAQAPNDSLVGGYFYSYTVSKSGTDIGSWTETNIKSYVLPATEDNKLPNDNDSTSFDNFQKEVKNFFPNISNVTGQGQYKDKTLQGLHITITTQFYSETEITSFTQYVAQAAKSYLPSGIPVDIKINGSDGETQSFVSTTGGNGGYYTHVFGSY”: “soluble”. As to “KNASVITVGNEILKGRTVNTNAAFIGNFLTYHGYQVRRGFVVMDDLDEIGWAFRVALEVSDLVVSSGGLGPTFDDMTVEGFAKCIGQDLRIDEDALAMIKKKYGQADLTPQRLKMAKIPPSCRPIENPVGTAPGLICAVGGKKVIILPGVPKEMEALLKAMEKDIIIPD”, the “soluble on expression in E. coli” value is “soluble”. To “MAHHHHHHMGTLEAQTQGPGSMSVMPDHWIKERALKDGMISPFVDHKEGTGVLSYGLSSYGYDARLDNKFKIFANTHSVVVDPKNFSQDSFVDREGDFCIIPPNSFMLAKTVEYFNIPRDVMVVCVGKSTYARCGIVVNVTPLEPGWSGYVTLEFSNTSPLPVKVYAFEGACQFLFFSGKERCSKSYDEAGGKYMGQSDVTLPIIS” belongs “soluble”; to “MNEKNIKHSQNFITSKHNIDKIMTNIRLNEHDNIFEIGSGKGHFTLELVQRCNFVTAIEIDHKLCKTTENKLVDHDNFQVLNKDILQFKFPKNQSYKIFGNIPYNISTDIIRKIVFDSIADEIYLIVEYGFAKRLLNTKRSLALFLMAEVDISILSMVPREYFHPKPKVNSSLIRLNRKKSRISHKDKQKYNYFVMKWVNKEYKKIFTKNQFNNSLKHAGIDDLNNISFEQFLSLFNSYKLFNK”, “soluble”; to “MSLRDTVLVVDDEPDSLRFLADTLEGAGIRVLVAISGDAALDVLQHVEPDLILMDGVMPGRSGFETTACIKARPELAHVPVVFMTGLHDDEHVVRGFEVGGVDYLRKPVNVQELLARVRVHVGNARAIQAGAAGLDATGRLMMATDLQGGLLWCTPLAERAIARACPGWSRDAGALPDALREPVRKMLGRGAAQSGSVKVEQVDGTMELVVIAQYRGQEVLIRVNELNPKADIALLQQKLGLTDREAEVLLWTSYGKSNATISEVLAISPRTVQKHLERIYEKLGIETRAAAAAVAIKALGNEGHHHHHH”, “soluble”. To “MTVFVDHKIEYMSLEDDAELLKTMAHPMRLKIVNELYKHKALNVTQIIQILKLPQSTVSQHLCKMRGKVLKRNRQGLEIYYSINNPKVEGIIKLLNPIQ” belongs “soluble”. Regarding “MSLSFTSTIKVVIADDHAILREGLKQILAETEDIEVVADAKNAAEAIKLAGTKGLDVVVLDISLPDRSGIEACNIIKKEHPGVAVLMLSMHREDAYAIRALRAGAVGYLSKQSASDQLVTAIRTVAKGKKYISAEVALALADQVSGGLEKPIHDTLSNREFQTLTMIASGLSVSEIAENLSLSVKTVSMYRARLLEKLNLRHNAELTHYAIKNNLIDEGHHHHHH”, the “soluble on expression in E. coli” value is on record as “soluble”.

Turning to “MGSDKIHHHHHHMGNCQILSSGDKIKLIRKKYGLRQDDIVGEEVTRNLISQIEHNKAKLTKSTAEIIIKNLKEIAKKNNLEMDVTADYLLEDELAQANSILENYVDELKNLLVYKCSRFYESLKSAEEFLIQWDIKEKKVQIYELAGDYFYIQNDLAKSVLYYEKAFDILDKTSYNKSLLSILRKLSLMYLNSLKYDRSIECCNFALNHFKNMPDDYISIFLFNTALCYYYMHYYEKALEVIDNLEPLIKDNTSKLIDVLNNKACCLSDLNRIDEAAEIYLRIFNLLNTNNIKSSQYLLILSNLIDTFAKKDVKDEVIKYLNLLLDRFPTSSQDDSYLSVACFNAAKAFIYLGDLQKAEEYLLKALTLSKNHNKYSLQEKTLSLLTDLYIQLNDFEKLEEINLEAVVLSNSQQKVCTNIFYKLLKFLNQNNKTEDIDKILNFLIKFK”, the “soluble on expression in E. coli” value is on record as “not soluble”. To “MDIILGIRVQDSVILASSKAVTRGISVLKDSDDKTRQLSPHTLMSFAGEAGDTVQFAEYIQANIQLYSIREDYELSPQAVSSFVRQELAKSIRSRRPYQVNVLIGGYDKKKNKPELYQIDYLGTKVELPYGAHGYSGFYTFSLLDHHYRPDMTTEEGLDLLKLCVQELEKRMPMDFKGVIVKIVDKDGIRQVDDFQAQ” belongs “soluble”. As to “HGTELPSPPSVWFEAEFFHHILHWTPIPQQSESTCYEVALLRYGIESWNSISQCSQTLSYDLTAVTLDLYHSNGYRARVRAVDGSRHSQWTVTNTRFSVDEVTLTVGSVNLEIHNGFILGKIQLPRPKMAPAQDTYESIFSHFREYEIAIRKVPGQFTFTHKKVKHEQFSLLTSGEVGEFCVQVKPSVASRSNKGMWSKEECISLTRQYFTVTN”, the “soluble on expression in E. coli” value is on record as “soluble”. To “MAHHHHHHMGTLEAQTQGPGSMDEVLLVKKLVEDAIVPTRGSKCAAGIDLYSNTNFIIQPHERFLVSTGVSVQIPHQCYGRIAPRSSLALKYGIDVGAGVIDEDYRGEIKVILFNHSNEIFNGRKGDRIAQLIIERISYCRISEVKELNTTDRGTNGFGSTGK” belongs “soluble”; to “AHHHHHHGSKVYAPATIANFGPGFDVFGLAIETPRDTVIAKESDDFRIEVEGYKVPENDENVALVAAKALFKLVGEEGGIYLKLKKGIRPKSGLGSSGASSIAGAVAAARILGVEDDEIIIRAALEGERKASGSPHGDNVVPSYYGNFTIVESLNPLRVHNIEVDFKVVVILPSVEVPTSEARKVLPKKVPLKDAVKNIALASSLVLALKEGNLEEVGRLLEDHLALPYRLSLVPWFPKVKEAAKEAGAYGVMISGSGPAVFALGENLKEIGKAMKEAFESFGIEAEYWVTKVGRGAKWC”, “not soluble”.

For the sequence “VIIGLHNPKSPTNVGAVMRAAGCYNATQVRYNGTRYARAVKFQTDTQNSHERIGLVEMDDLTAGLDSEVKIVCVELAVGATALPHFTHPEQAIYLFGPEDGSLPQEVVDQAHYVVYVPTHGCMNLAATVNVVLYDRLAKSL”, the “soluble on expression in E. coli” value is given as “not soluble”. The same measure for “MSLSKTSKMKKTEISKKPSELGISNKTQDDLSKYSDTVNIALFGVDRRLKTDVSRSDSIMILTMDPAHKKLKLSSIMRDTYVNVDGHGMTKITHAYAYGGPQLAIKTINENFKLNIKDYVTVDFYALEKIIDKLNGVEINVQSDEVGYLNGYIDEVSKYEKVTPNHVTSSGKQLLDGRQAVAYSRIRYTAGGDFVRTERQRTVLMAVFNKLQAQGKSNMVSMFDEILPYTETNMGSIDIAKYGTKFISSDISNIDQERFPLDGYCSGVTVDNVWYLKTDLNVTSDQMRKYIFEDVKPSPKASLVNIPEKEGHHHHHH”: “soluble”. “AEPVKVGSKIDTEGALLGNMIQQVLESHGVKTINKIQLGTTPVVRGAIVAGELDIYPEYTGNGAFFFKDENDPAWKNAQQGYEKVKRLDQEKHQLVWLTPAPANNTWTIAVRQDLAEKNKLTSLADLSRYLKQGGEFKLAASAEFIERPDALPAFEKAYGFNLNQNQLLSLAGGDTAVTIKAAAQQTSGVNAAMAYGTDGPVAALGLQTLSDPQGVQPIYAPTPVVREAVLKAYPQIADWLQPVFASLDEKTLQQLNARIAVEGQDAKRVAADYLQQKGLLK”: the “soluble on expression in E. coli” value is “not soluble”.
